Tests used:
recombinant mouse DLL4 = biological target: T1, recombinant mouse DLL4 (mouse, UniProt Q9JI71 27-532); test: ProteOn off-rate screen, periplasmic extract, mDLL4 on chip
T1 construct: extracellular domain; also called rmDLL4; mDLL4; not shown: C-terminal His tag
Protocol: (§1) In a first cycle, amino acid substitutions are introduced randomly in both framework (FW) and complementary determining regions (CDR) using the error-prone PCR method. […] After a polish step, PCR products are inserted via unique restriction sites into a vector designed to facilitate phage display of the VHH library. […] No selections on murine DLL4 are included as (conservation of) cross-reactivity is assessed at the screening level. Individual mutants are produced as recombinant protein using an expression vector derived from pUC119, which contains the LacZ promoter, a resistance gene for ampicillin, a multiple cloning site and an ompA leader sequence (pAX50). E. coli TG1 cells are transformed with the expression vector library and plated on agar plates (LB+Amp+2% glucose). Single colonies are picked from the agar plates and grown in 1 mL 96-deep-well plates. VHH expression is induced by adding IPTG (1 mM). Periplasmic extracts (in a volume of ˜80 uL) are prepared according to standard methods and screened for binding to recombinant human and mouse DII4 in a ProteOn (BioRad, Hercules, Calif., USA) off-rate assay. […] Periplasmic extract of affinity matured clones is diluted 1/10 and injected across the “analyte channels” A1-A6. An average off-rate is calculated of the wild type clones present in the plate and served as a reference to calculate off-rate improvements.

recombinant human DLL4 = biological target: T2, recombinant human DLL4 (human, UniProt Q9NR61 25-522); test: ProteOn off-rate screen, periplasmic extract, hDLL4 on chip
T2 construct: R&D Systems C-terminally His-tagged extracellular domain; also called rhDLL4; hDLL4; not shown: C-terminal His tag
Protocol: as §1

T1 sequence (Q9JI71 27-532): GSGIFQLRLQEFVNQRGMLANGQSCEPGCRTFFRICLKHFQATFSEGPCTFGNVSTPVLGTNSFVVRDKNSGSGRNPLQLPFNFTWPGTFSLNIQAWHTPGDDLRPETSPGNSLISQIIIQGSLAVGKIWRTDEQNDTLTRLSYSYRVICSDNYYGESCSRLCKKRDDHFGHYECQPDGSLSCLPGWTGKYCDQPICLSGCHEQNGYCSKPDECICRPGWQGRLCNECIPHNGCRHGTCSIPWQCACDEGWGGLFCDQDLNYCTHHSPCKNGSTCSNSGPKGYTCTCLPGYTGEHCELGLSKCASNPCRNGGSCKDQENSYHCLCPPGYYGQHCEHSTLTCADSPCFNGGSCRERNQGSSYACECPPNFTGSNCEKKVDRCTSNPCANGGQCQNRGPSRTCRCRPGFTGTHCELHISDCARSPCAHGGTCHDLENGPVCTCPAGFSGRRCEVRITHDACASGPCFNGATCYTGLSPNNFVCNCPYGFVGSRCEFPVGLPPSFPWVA
T2 sequence (Q9NR61 25-522): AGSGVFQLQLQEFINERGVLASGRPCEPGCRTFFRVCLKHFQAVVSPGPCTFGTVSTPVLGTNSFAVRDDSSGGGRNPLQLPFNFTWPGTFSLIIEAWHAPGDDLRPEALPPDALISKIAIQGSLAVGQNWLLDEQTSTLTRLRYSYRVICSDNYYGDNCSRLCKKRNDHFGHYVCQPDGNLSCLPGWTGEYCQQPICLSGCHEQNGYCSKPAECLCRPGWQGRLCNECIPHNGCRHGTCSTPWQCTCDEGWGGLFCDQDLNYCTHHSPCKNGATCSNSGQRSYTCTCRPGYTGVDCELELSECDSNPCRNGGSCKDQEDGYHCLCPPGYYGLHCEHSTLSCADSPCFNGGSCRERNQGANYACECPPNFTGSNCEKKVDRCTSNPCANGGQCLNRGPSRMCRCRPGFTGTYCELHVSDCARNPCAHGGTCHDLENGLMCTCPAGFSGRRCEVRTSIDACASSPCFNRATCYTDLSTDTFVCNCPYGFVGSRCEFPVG

Binder | fold (off-rate improvement over DLLBII101G08) (recombinant mouse DLL4) [fold] | fold (off-rate improvement over DLLBII101G08) (recombinant human DLL4) [fold]
DLLBII129G09 (VHH) VHH: EVQLVESGGGLVQAGGSLRLSCAASGRTFSSYAMAWYRQAPGKEREYVAAIRWSGETAYYADSVQGRFTISRDNAKNTVYLQMNSLKPEDTAVYYCANRAPDTRLEPYLYDHWGQGTQVTVSS | 20 | 26
DLLBII130B02 (VHH) VHH: EVQLVESGGGLVQAGGSLRLSCAASGRTFSSYAMAWFRQAPGKEREYVAAIRWSGGTAYYADSVQGRFTISRDNAKNTVYLQMYSLKPEDTAVYYCANRAPDTRLAPYLYDHWGQGTQVTVSS | 17 | 23
DLLBII129G10 (VHH) VHH: EVQLVESGGGLVQAGGSLRLSCAASGRTFSSYAMAWYRQAPGKEREYVAAIRWSGGTAYYADSVQSRFTISRDNAKNTVYLQMNSLKPEDTAVYYCANRAPDTRLEPYEYDHWGQGTQVTVSS | 26 | 31
DLLBII129H07 (VHH, not shown: C-terminal c-myc tag and (His)6 tag) VHH: EVQLVESGGGLVQAGGSLRLSCAASGRTFSSYAMAWYRQAPGKEREYVAAIRWSGGTAYYADSVQGRFTISRDNAKNTVYLQMNSLKPEDTAVYYCANRAPDTRLEPYEYDYWGQGTQVTVSS | 27 | 30
DLLBII130B04 (VHH) VHH: EVQLVESGGGLVQAGGSLRLSCAASGRTFSSYAMAWFRQAPGKEREYVAAIRWSGGTAYYADSVQGRFTISRDNAKNTVYLQMNSLKPEDTAVYYCANRAPDTRLRPYLYDHWGQGTQVTVSS | 17 | 22
DLLBII129H05 (VHH) VHH: EVQLVESGGGLVQAGGSLRLSCAASGRTFSSYAMAWYRLAPGKEREYVAAIRWSGGTAYYADSVQGRFTISRDNAKNTVYLQMNSLKPEDTAVYYCANRAPDTRLGPYLYDYWGQGTQVTVSS | 19 | 24
DLLBII129H04 (VHH) VHH: EVQLVESRGGLVQAGGSLRLSCAASGRTFSSYAMAWFRQAPGKEREYVAAIRWSGGTAYYADSVQGRFTISRDNAKNTVYLQMNSLKPEDTAVYYCANRAPDTRLEPYLYDHWGQGTQVTVSS | 27 | 33
DLLBII129H02 (VHH) VHH: EVQLVESGGGLVQAGGSLRLSCAASGRTFSSYAMAWYRQAPGKEREYVAAIRWSGGTAYYADSVQGRFTISRDNAKNTVYLQMNSLKPEDTAVYYCANRAPDTRLRPYEYDYWGQGTQVTVSS | 19 | 23
DLLBII130B03 (VHH, not shown: C-terminal c-myc tag and (His)6 tag) VHH: EVQLVESGGGLVQAGGSLRLSCAASGRTFSSYAMAWYRQAPGKEREYVAAIRWSGGTAYYADSVQGRFTISRDNAKNTVYLQMNSLKPEDTAVYYCANRAPDTRLAPYLYDYWGQGTQVTVSS | 20 | 27
DLLBII130A05 (VHH) VHH: EVQLVESGGGLVQAGGSLRLSCAASGRTFSSYAMAWYRQAPGKEREYVAAIRWSGGTAYYADSVQGRFTISRDNAKNTVYLQMNSLKPEDTAVYYCANRAPDTRLGPYLYDHWGQGTQVTVSS | 17 | 24
